Data on five molecules can be found in patent US20210171630A1 (MacroGenics, published 2021).

The target in assay [1] is T1, Human CD16A 158V, His tagged (R&D Systems) (human, UniProt P08637 17-208).
T1 construct: Bought (R&D Systems); also called CD16-His tagged molecules; not shown: His tag
In words: SPR (ProteOn); CD16-His immobilized via anti-PentaHis, diabody passed over. The procedure: (§1) A ProteOn analysis was conducted to assess the binding of the CD16 Binding Domains of the constructed diabodies to CD16-His tagged molecules (R&D Systems) that had been immobilized on a chip. The CD16 molecules were immobilized via an anti-PentaHis antibody, followed by incubation incubation with the diabodies.

For assay [2], the target named is T2, Human CD16A V158F, His tagged (R&D Systems) (human, UniProt P08637 17-208).
T2 construct: Bought (R&D Systems); also called CD16-His tagged molecules; not shown: His tag
T2 sequence (P08637 17-208 limits assumed, stated change not applied): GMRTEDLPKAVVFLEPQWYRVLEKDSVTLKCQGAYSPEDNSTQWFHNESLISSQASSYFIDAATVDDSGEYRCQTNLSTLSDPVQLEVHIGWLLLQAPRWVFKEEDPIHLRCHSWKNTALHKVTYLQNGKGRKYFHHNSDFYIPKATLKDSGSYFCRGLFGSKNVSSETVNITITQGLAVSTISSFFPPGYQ
The description is as above. The procedure: as §1

Assay [3] has as its target T3, human CD16A on the surface of NK cells (human, UniProt P08637 17-254).
T3 construct: whole, on cells; also called CD16A-expressing cells of the gated lymphocyte population; human CD16 on NK cells
The assay is described as follows: flow cytometry, whole blood of donor D59780, NK cells: CD56 APC / αhFc PE double-positive cells (%). The procedure:
Following incubation, the cells were labled with: anti-CD56-allophycocyanin (CD56 APC, NK cell marker), anti-CD66b-fluorescein isothiocyanate (CD66b FITC, neutrophil cell marker) and anti-CD3-peridinin chlorophyll protein-Cy5.5 (CD3 PerCP Cy5.5, T-cell marker), and anti-humanFc-Phycoerythrin (αhFc PE) to detect diabody binding and the cell surface. The labeled cells were analyzed by flow cytometry gated on NK cells.
On the technique in general: A flow cytometer gives signals particle by particle.

In assay [4] the target is T4, Human CD16B, His tagged (R&D Systems) (human, UniProt O75015 17-200).
T4 construct: Bought (R&D Systems); also called CD16-His tagged molecules; not shown: His tag
T4 sequence (O75015 17-200 limits assumed): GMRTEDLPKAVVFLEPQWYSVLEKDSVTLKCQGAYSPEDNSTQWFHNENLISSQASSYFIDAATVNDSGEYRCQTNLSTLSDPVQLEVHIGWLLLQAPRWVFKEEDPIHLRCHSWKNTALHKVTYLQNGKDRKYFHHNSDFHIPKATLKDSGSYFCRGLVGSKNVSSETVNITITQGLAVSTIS
In words: SPR (ProteOn); CD16-His immobilized via anti-PentaHis, diabody passed over. The procedure: as §1

The target in assay [5] is T5, Human CD16A 158V (labeled with Avitag) (human, UniProt P08637 17-208).
T5 construct: also called human CD16A V/F molecules; CD16 158V allotype; not shown: Avitag
T5 sequence (P08637 17-208 F176V limits assumed): as the sequence (P08637 17-208 limits assumed, stated change not applied) above, with F160V counted along it
In words: SPR (BIACORE); diabody captured on goat F(ab')2 anti-human Fc, CD16A-Avitag passed over; 1:1 fit.

The target of assay [6] is T6, Human CD16A 158F (labeled with Avitag) (human, UniProt P08637 17-208).
T6 construct: also called human CD16A V/F molecules; not shown: Avitag
T6 sequence (P08637 17-208 limits assumed): as the sequence (P08637 17-208 limits assumed, stated change not applied) above
Described as above.

In assay [7] the target is T3, human CD16A on the surface of NK cells. In words: flow cytometry, whole blood of donor D48353, gated lymphocyte population: αhFc APC (% positive).
Assay [8] concerns the target T7, human CD16B of neutrophils (human, UniProt O75015 17-200).
T7 construct: whole, on cells; also called CD16B-expressing cells of the gated granulocyte population
The assay is described as follows: flow cytometry, whole blood of donor D48353, gated granulocyte population (CD66b PerCP Cy5.5): αhFc APC (% positive).

In assay [9] the target is T7, human CD16B of neutrophils. In words: flow cytometry, whole blood of donor D59780, neutrophils: CD66b FITC / αhFc PE double-positive cells (%).

T3 sequence (P08637 17-254): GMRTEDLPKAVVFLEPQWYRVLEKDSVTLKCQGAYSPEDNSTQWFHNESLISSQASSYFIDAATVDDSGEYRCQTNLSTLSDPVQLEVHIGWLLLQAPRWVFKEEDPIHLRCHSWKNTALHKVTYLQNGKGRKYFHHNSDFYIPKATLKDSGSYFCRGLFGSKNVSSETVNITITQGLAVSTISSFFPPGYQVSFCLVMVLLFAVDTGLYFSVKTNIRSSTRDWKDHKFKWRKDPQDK
T1 sequence (P08637 17-208 F176V limits assumed): as the sequence (P08637 17-208 limits assumed, stated change not applied) above, with F160V counted along it
T7 sequence (O75015 17-200): as the sequence (O75015 17-200 limits assumed) above

B1: DART-Z (bispecific antibody)
chain 1: QSALTQPPSASGSPGQSVTISCTGTSSDVGGYNYVSWYQHHPGKAPKLIISEVNNRPSGVPDRFSGSKSGNTASLTVSGLQAEDEAEYYCSSYTDIHNFVFGGGTKLTVLGGGSGGGGEEVQLVQSGAEVKKPGESLKVSCKASGYTFTSYYMHWVRQAPGQGLEWMGIINPSGGSTSYAQKFQGRVTMTRDTSTSTVYMELSSLRSEDTAVYYCARGSAYYYDFADYWGQGTLVTVSSASTKGEVAACEKEVAALEKEVAALEKEVAALEK
chain 2: QPVLTQPSSVSVAPGQTATISCGGHNIGSKNVHWYQQRPGQSPVLVIYQDNKRPSGIPERFSGSNSGNTATLTISGTQAMDEADYYCQVWDNYSVLFGGGTKLTVLGGGSGGGGQVQLQESGPGLVKPSQTLSLSCTVSGGSSSSGAHYWSWIRQYPGKGLEWIGYIHYSGNTYYNPSLKSRITISQHTSENQFSLKLNSVTVADTAVYYCARGTRLRTLRNAFDIWGQGTLVTVSSASTKGKVAACKEKVAALKEKVAALKEKVAALKE
notes: also called 4-LS21
Regarding B1, the Kd in [1] came to 15.7 nM; in [2] it was 15.2 nM.

B2: DART-F (bispecific antibody)
chain 1: QSALTQPPSASGSPGQSVTISCTGTSSDVGGYNYVSWYQHHPGKAPKLIISEVNNRPSGVPDRFSGSKSGNTASLTVSGLQAEDEAEYYCSSYTDIHNFVFGGGTKLTVLGGGSGGGGEVQLVESGGGLVKPGGSLRLSCAASGFTFSNYGMSWVRQAPGKGLEWVATISGGGSYTFYPDSVKGRFTISRDNAKNSLYLQMNSLRTEDTALYYCVRQSARAPEPYWGQGTLVTVSSASTKGEVAACEKEVAALEKEVAALEKEVAALEKGGGDKTHTCPPCPAPEAAGGPSVFLFPPKPKDTLMISRTPEVTCVVVDVSHEDPEVKFNWYVDGVEVHNAKTKPREEQYNSTYRVVSVLTVLHQDWLNGKEYKCKVSNKALPAPIEKTISKAKGQPREPQVYTLPPSREEMTKNQVSLWCLVKGFYPSDIAVEWESNGQPENNYKTTPPVLDSDGSFFLYSKLTVDKSRWQQGNVFSCSVMHEALHNHYTQKSLSLSPGK
chain 2: DIQMTQSPSFLSASVGDRVTITCRASQNVGTHVAWYQQKPGKAPKSLLYSASYRYSGVPSRFSGSGSGTDFTLTISSLQSEDIATYYCQQYKSYPLTFGQGTKLEIKGGGSGGGGQVQLQESGPGLVKPSQTLSLSCTVSGGSSSSGAHYWSWIRQYPGKGLEWIGYIHYSGNTYYNPSLKSRITISQHTSENQFSLKLNSVTVADTAVYYCARGTRLRTLRNAFDIWGQGTLVTVSSASTKGKVAACKEKVAALKEKVAALKEKVAALKE
chain 3: not shown
notes: Three-chain diabody; hCD16-M1 x A32; also called DART-F (hCD16-M1)
For B2, the concentration giving a half-maximal response (EC50 (read off the curve)) in [3] was about 0.0002 µg/mL; in assay [7], about 0.003 µg/mL. For the same molecule, the dissociation constant (Kd) was 0.1 nM in assay [1]; 0.1 nM in assay [2]; 0.4 nM in [4]; 0.3 nM in assay [5]; 0.2 nM in [6].

B3: DART-H (bispecific antibody)
chain 1: DIVMTQSPDSLAVSPGERATIHCKSSQTLLYSSNNRHSIAWYQQRPGQPPKLLLYWASMRLSGVPDRFSGSGSGTDFTLTINNLQAEDVAIYYCHQYSSHPPTFGHGTRVEIKGGGSGGGGEVQLVESGGGLVKPGGSLRLSCAASGFTFSNYGMSWVRQAPGKGLEWVATISGGGSYTFYPDSVKGRFTISRDNAKNSLYLQMNSLRTEDTALYYCVRQSARAPEPYWGQGTLVTVSSASTKGEVAACEKEVAALEKEVAALEKEVAALEKGGGDKTHTCPPCPAPEAAGGPSVFLFPPKPKDTLMISRTPEVTCVVVDVSHEDPEVKFNWYVDGVEVHNAKTKPREEQYNSTYRVVSVLTVLHQDWLNGKEYKCKVSNKALPAPIEKTISKAKGQPREPQVYTLPPSREEMTKNQVSLWCLVKGFYPSDIAVEWESNGQPENNYKTTPPVLDSDGSFFLYSKLTVDKSRWQQGNVFSCSVMHEALHNHYTQKSLSLSPGK
chain 2: DIQMTQSPSFLSASVGDRVTITCRASQNVGTHVAWYQQKPGKAPKSLLYSASYRYSGVPSRFSGSGSGTDFTLTISSLQSEDIATYYCQQYKSYPLTFGQGTKLEIKGGGSGGGGQVQLVQSGGGVFKPGGSLRLSCEASGFTFTEYYMTWVRQAPGKGLEWLAYISKNGEYSKYSPSSNGRFTISRDNAKNSVFLQLDRLSADDTAVYYCARADGLTYFSELLQYIFDLWGQGARVTVSSASTKGKVAACKEKVAALKEKVAALKEKVAALKE
chain 3: not shown
notes: Three-chain diabody; hCD16-M1 x 7B2
Consider B3, for which the Kd in assay [1] came to 0.1 nM; in assay [2] it was 0.04 nM; in assay [4], 0.4 nM.

B4: DART-G (bispecific antibody)
chain 1: QSALTQPPSASGSPGQSVTISCTGTSSDVGGYNYVSWYQHHPGKAPKLIISEVNNRPSGVPDRFSGSKSGNTASLTVSGLQAEDEAEYYCSSYTDIHNFVFGGGTKLTVLGGGSGGGGQVQLVQSGAEVKKPGASVKVSCKASGYTFTSSAMHWVRQAPGQGLEWMGYINHYNDGIKYNERFKGRVTITADKSTSTAYMELSSLRSEDTAVYYCATGYRYASWFASWGQGTLVTVSSASTKGEVAACEKEVAALEKEVAALEKEVAALEKGGGDKTHTCPPCPAPEAAGGPSVFLFPPKPKDTLMISRTPEVTCVVVDVSHEDPEVKFNWYVDGVEVHNAKTKPREEQYNSTYRVVSVLTVLHQDWLNGKEYKCKVSNKALPAPIEKTISKAKGQPREPQVYTLPPSREEMTKNQVSLWCLVKGFYPSDIAVEWESNGQPENNYKTTPPVLDSDGSFFLYSKLTVDKSRWQQGNVFSCSVMHEALHNHYTQKSLSLSPGK
chain 2: EIVLTQSPATLSVSPGERATLSCRASQNIGTSIHWYQQKPDQSPKLLIKSVSESISGVPSRFSGSGSGTDFTLTINSLEAEDFATYYCQQSNSWPLTFGQGTKLEIKGGGSGGGGQVQLQESGPGLVKPSQTLSLSCTVSGGSSSSGAHYWSWIRQYPGKGLEWIGYIHYSGNTYYNPSLKSRITISQHTSENQFSLKLNSVTVADTAVYYCARGTRLRTLRNAFDIWGQGTLVTVSSASTKGKVAACKEKVAALKEKVAALKEKVAALKE
chain 3: not shown
notes: Three-chain diabody; hCD16-M2 (VH1) x A32; also called DART-G (hCD16-M2)
In the case of B4, the concentration for a half-maximal effect (EC50 (read off the curve)) in assay [3] is about 0.008 µg/mL; in [8], about 0.2 µg/mL; in assay [7] it was about 0.03 µg/mL; in assay [9] it was about 0.1 µg/mL. In addition, the Kd turned out to be 0.8 nM in [1]; 1.9 nM in assay [2]; 2.6 nM in assay [4]; 2.2 nM in [5]; 2.6 nM in assay [6].

B5: DART-4 (bispecific antibody)
chain 1: DIVMTQSPDSLAVSPGERATIHCKSSQTLLYSSNNRHSIAWYQQRPGQPPKLLLYWASMRLSGVPDRFSGSGSGTDFTLTINNLQAEDVAIYYCHQYSSHPPTFGHGTRVEIKGGGSGGGGQVTLRESGPALVKPTQTLTLTCTFSGFSLSTSGMGVGWIRQPPGKALEWLAHIWWDDDKRYNPALKSRLTISKDTSKNQVVLTMTNMDPVDTATYYCAQINPAWFAYWGQGTLVTVSSASTKGEVAACEKEVAALEKEVAALEKEVAALEKGGGDKTHTCPPCPAPEAAGGPSVFLFPPKPKDTLMISRTPEVTCVVVDVSHEDPEVKFNWYVDGVEVHNAKTKPREEQYNSTYRVVSVLTVLHQDWLNGKEYKCKVSNKALPAPIEKTISKAKGQPREPQVYTLPPSREEMTKNQVSLWCLVKGFYPSDIAVEWESNGQPENNYKTTPPVLDSDGSFFLYSKLTVDKSRWQQGNVFSCSVMHEALHNHYTQKSLSLSPGK
chain 2: DIVMTQSPDSLAVSLGERATINCKASQSVDFDGDSFMNWYQQKPGQPPKLLIYTTSNLESGVPDRFSGSGSGTDFTLTISSLQAEDVAVYYCQQSNEDPYTFGQGTKLEIKGGGSGGGGQVQLVQSGGGVFKPGGSLRLSCEASGFTFTEYYMTWVRQAPGKGLEWLAYISKNGEYSKYSPSSNGRFTISRDNAKNSVFLQLDRLSADDTAVYYCARADGLTYFSELLQYIFDLWGQGARVTVSSASTKGKVAACKEKVAALKEKVAALKEKVAALKE
chain 3: not shown
With B5, the values for the dissociation constant (Kd) in assay [1], in assay [2] and in assay [4] were 23.3 nM, 76.8 nM and 7.8 nM, respectively. In assay [1], the association rate constant (kon) was found to be 290000 M⁻¹ s⁻¹.

One may read the Kd as the constant that tells how readily two partners part at equilibrium. The low end stands for higher affinity, the high end for lower affinity. In general, EC50 (read off the curve) refers to the concentration giving half of the maximal effect. A lower EC50 (read off the curve) goes with an effect from little substance. The kon is a measure of how fast the partners come together. A lower kon goes with slow association.
